Data taken from PMC8580320 (Science Advances, 2021).

Molecular target: the molecule itself
Assay: crystal structure

B1: MtaLonC-S582A (enzyme)
chain: MRLSYEALEWRTPIENSTEPVSLPPPPPFFGQERAREALELAIRGGFHAYLVGPPSLGKHEALLAYLSTQSVETPPDLLYVPLSERKVAVLTLPSGQEIHLAEAVEGLLLEVNRLDELFRQGSFLREKTQLEARFKEAREQQLEALRREAQEAGFALSTNGERLELTGPGPVPAELSARLEEVTLGSLAASAELEVALRRLRRDWALHYLNNRFEPLFQRFPQARAYLEALRARLARYAETGEPLDPAQWRPNLLTSSSSGTPPPIVYEPYATAPRLFGRLDYLVDRGVWSTNVSLIRPGAVHRAQGGYLILDALSLKREGTWEAFKRALRNGQVEPVTEPQAPAGLEVEPFPIQMQVILVGTPEAFEGLEEDPAFSELFRIRAEFSPTLPASPENCTALGGWLLAQGFQLTQGGLTRLYDEARRMAEQRDRMDARLVEIRALAEEAAVLGGGLLTAESVEQAIAAREHRSFLSEEEFLRAVQEGVIRLRTTGRAVGEVNSLVVVEAAPYWGRPARLTARAAPGRDHLISIDREAGLGGQIFHKAVLTLAGYLRSRYIEHGSLPVTISLAFEQNYVSIEGDAAGLAELVAALSAIGNLPLRQDLAVTGAVDQTGKVLAVGAINAKVEGFFRVCKALGLSGTQGVILPEANLANLTLRAEVLEAVRAGQFHIYAVETAEQALEILAGARMEGFRGLQEKIRAGLEAFARLEEGHDKEDREKLAAALEHHHHHH
stoichiometry N: 6
